Results as given in patent US20230272099A1 (Chugai, published 2023).

Columns and labels:
[1] = target: human FcRn (human, UniProt P55899 24-290; P61769 21-119); assay: SPR 25C pH 6.0, steady state
Outline: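 Antibody (~400 RU) captured on anti-Fab-lambda sensor chip, human FcRn injected as analyte.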

[2] = target: T1, human FcgRIIa type H extracellular domain (human, UniProt P12318 34-217); assay: SPR 25C
T1 construct: extracellular domain; also called hFcgRIIaH
T1 sequence (looked up): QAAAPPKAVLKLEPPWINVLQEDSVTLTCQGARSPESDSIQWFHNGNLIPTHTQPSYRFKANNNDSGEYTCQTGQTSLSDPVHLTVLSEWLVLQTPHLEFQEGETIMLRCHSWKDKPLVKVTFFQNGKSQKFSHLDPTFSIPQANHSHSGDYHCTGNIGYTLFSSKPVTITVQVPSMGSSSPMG

[3] = target: T2, human FcgRIIIa V158 extracellular domain (human, UniProt P08637 17-208); assay: SPR 25C
T2 construct: extracellular domain; also called hFcgRIIIaV
T2 sequence (P08637 17-208 F176V): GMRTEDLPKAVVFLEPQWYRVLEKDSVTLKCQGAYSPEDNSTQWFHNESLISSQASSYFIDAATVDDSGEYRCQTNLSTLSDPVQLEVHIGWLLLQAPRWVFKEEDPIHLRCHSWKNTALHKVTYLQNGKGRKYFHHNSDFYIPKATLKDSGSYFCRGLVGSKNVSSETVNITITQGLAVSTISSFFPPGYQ

[4] = target: T3, human FcgRIIa type R extracellular domain (human, UniProt P12318 34-217); assay: SPR 25C
T3 construct: extracellular domain; also called hFcgRIIaR
T3 sequence (looked up): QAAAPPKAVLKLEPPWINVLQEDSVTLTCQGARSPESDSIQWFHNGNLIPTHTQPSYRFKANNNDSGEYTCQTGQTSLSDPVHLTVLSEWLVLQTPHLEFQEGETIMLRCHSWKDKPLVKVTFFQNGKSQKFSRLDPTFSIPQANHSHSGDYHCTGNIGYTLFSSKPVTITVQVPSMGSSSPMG

[5] = target: T4, human FcgRIIb extracellular domain (human, UniProt P31994 43-217); assay: SPR 25C
T4 construct: extracellular domain; also called hFcgRIIb
T4 sequence (looked up): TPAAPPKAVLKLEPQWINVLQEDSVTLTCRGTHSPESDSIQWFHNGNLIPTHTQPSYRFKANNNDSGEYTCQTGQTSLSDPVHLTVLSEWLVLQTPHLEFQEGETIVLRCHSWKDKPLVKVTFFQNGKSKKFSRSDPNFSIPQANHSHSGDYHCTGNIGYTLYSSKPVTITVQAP

[6] = target: T5, human FcgRIIIa F158 extracellular domain (human, UniProt P08637 17-208); assay: SPR 25C
T5 construct: extracellular domain; also called hFcgRIIIaF
T5 sequence (P08637 17-208): as the sequence (P08637 17-208 F176V) above, with V160F counted along it

[7] = target: T6, human FcgRIa extracellular domain (human, UniProt P12314 16-292); assay: SPR 25C
T6 construct: extracellular domain; also called hFcgRIa
T6 sequence (P12314 16-292): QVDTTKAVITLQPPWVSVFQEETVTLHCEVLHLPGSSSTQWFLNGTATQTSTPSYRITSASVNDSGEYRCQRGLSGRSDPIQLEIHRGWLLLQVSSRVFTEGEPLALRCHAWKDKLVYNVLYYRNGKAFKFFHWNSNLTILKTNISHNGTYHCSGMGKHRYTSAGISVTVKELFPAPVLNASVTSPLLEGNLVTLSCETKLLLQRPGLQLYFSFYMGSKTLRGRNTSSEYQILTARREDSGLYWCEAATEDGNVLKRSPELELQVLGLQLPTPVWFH

| Kd [1] [nM] | binding per 1RU antibody [2] [RU] | relative binding (A375-G1T3/B167-Lamlib=1) [2] | binding per 1RU antibody [3] [RU] | relative binding (A375-G1T3/B167-Lamlib=1) [3] | binding per 1RU antibody [4] [RU] | relative binding (A375-G1T3/B167-Lamlib=1) [4] | binding per 1RU antibody [5] [RU] | relative binding (A375-G1T3/B167-Lamlib=1) [5] | binding per 1RU antibody [6] [RU] | relative binding (A375-G1T3/B167-Lamlib=1) [6] | binding per 1RU antibody [7] [RU] | relative binding (A375-G1T3/B167-Lamlib=1) [7] | Binder |
| --- | --- | --- | --- | --- | --- | --- | --- | --- | --- | --- | --- | --- | --- |
| 1100 | 0.0571 | 1.01 | 0.0022 | 0.03 | 0.0376 | 0.81 | 0.0433 | 3.95 | 0.0009 | 0.04 | 0.0446 | 0.55 | A375-SCF041a/B167-Lamlib (antibody, human IgG1, lambda) heavy: EVQLVESGGGLVKPGGSLRLSCAASGFTFSTFTMNWVRQAPGKGLEWVSSISSKSTYIEYADSFKVRFTISRDNAKNSLYLQMNSLRAEDTAVYYCARYGAKNFLNWVFDYWGQGTLVTVSSASTKGPSVFPLAPSSKSTSGGTAALGCLVKDYFPEPVTVSWNSGALTSGVHTFPAVLQSSGLYSLSSVVTVPSSSLGTQTYICNVNHKPSNTKVDKRVEPKSCDKTHTCPPCPAPELLNGPSVFLFPPKPKDTLMISRTPEVTCVVVDVSDEDPEVKFNWYVDGVEVHNAKTKPREEQYNSTYRVVSVLTVLHQDWLNGKEYKCKVSNKALPKPIEKTISKAKGQRREPQVYTLPPSREEMTKNQVSLTCLVKGFYPSDIAVEWESNGQPENNYKTTPPVLDSDGSFFLYSKLTVDKSRWQQGNVFSCSVMHEALHNHYTQKSLSLSP light: QSALTQPPSASGSPGQTVTISCTGTRYDVGYYEYVSWYQQHPGKAPKLMIYETSKRLSGVPDRFSGSKSGNTASLTVSGLQAEDEADYYCSSYRYEHQVSFGGGTKLTVLGQPKAAPSVTLFPPSSEELQANKATLVCLISDFYPGAVTVAWKADSSPVKAGVETTTPSKQSNNKYAASSYLSLTPEQWKSHRSYSCQVTHEGSTVEKTVAPTECS |
| 1130 | 0.0371 | 0.65 | 0.0005 | 0.01 | 0.0371 | 0.8 | 0.035 | 3.2 | 0.0007 | 0.03 | 0.0013 | 0.02 | A375-SCF041aPh/B167-Lamlib (antibody, human IgG1, lambda) heavy: EVQLVESGGGLVKPGGSLRLSCAASGFTFSTFTMNWVRQAPGKGLEWVSSISSKSTYIEYADSFKVRFTISRDNAKNSLYLQMNSLRAEDTAVYYCARYGAKNFLNWVFDYWGQGTLVTVSSASTKGPSVFPLAPSSKSTSGGTAALGCLVKDYFPEPVTVSWNSGALTSGVHTFPAVLQSSGLYSLSSVVTVPSSSLGTQTYICNVNHKPSNTKVDKRVEPKSCDKTHTCPPCPAPELWNGPSVFLFPPKPKDTLMISRTPEVTCVVVDVSDEDPEVKFNWYVDGVEVHNAKTKPREEQYNSTYRVVSVLTVLHQDWLNGKEYKCKVSNKALPKPIEKTISKAKGQRREPQVYTLPPSREEMTKNQVSLTCLVKGFYPSDIAVEWESNGQPENNYKTTPPVLDSDGSFFLYSKLTVDKSRWQQGNVFSCSVMHEALHNHYTQKSLSLSP light: QSALTQPPSASGSPGQTVTISCTGTRYDVGYYEYVSWYQQHPGKAPKLMIYETSKRLSGVPDRFSGSKSGNTASLTVSGLQAEDEADYYCSSYRYEHQVSFGGGTKLTVLGQPKAAPSVTLFPPSSEELQANKATLVCLISDFYPGAVTVAWKADSSPVKAGVETTTPSKQSNNKYAASSYLSLTPEQWKSHRSYSCQVTHEGSTVEKTVAPTECS |
